The record followed here is publication PMC7367838, “Engineered CRISPR/Cas9 enzymes improve discrimination by slowing DNA cleavage to allow release of off-target DNA”.

Where a chain is given by its changes, count along the chain named.

Details in all cases: protein: recombinant; tags: His6-MBP removed by TEV; label: 32P or 6-FAM for cleavage; tCo (position not in material) for unwinding; guide RNA (S25+S26 joined) / target strand / non-target strand; DNA duplex blunt
The target in data set [1] is T1, SpCas9 (Streptococcus pyogenes, UniProt Q99ZW2 1-1368). Nature of the data set: stopped-flow and cleavage kinetics, global fit; 1/K1, initial binding step; bracketed value, footnote 3 not in material, may be fixed or from earlier work; Reaction buffer, salt, pH and temperature not in the material; Mg2+ added to start cleavage, omitted for pre-equilibration.
Data set [2] concerns the target T1, SpCas9. Kind of data set: stopped-flow and cleavage kinetics, global fit; Kd,net including R-loop formation; bracketed value, footnote 3 not in material, may be fixed or from earlier work; Reaction buffer, salt, pH and temperature not in the material; Mg2+ added to start cleavage, omitted for pre-equilibration.
The target in data set [3] is T1, SpCas9. Kind of data set: stopped-flow and cleavage kinetics, global fit; 1/K1, initial binding step; Reaction buffer, salt, pH and temperature not in the material; Mg2+ added to start cleavage, omitted for pre-equilibration.
The target in data set [4] is T1, SpCas9. Nature of the data set: stopped-flow and cleavage kinetics, global fit; Kd,net including R-loop formation; Reaction buffer, salt, pH and temperature not in the material; Mg2+ added to start cleavage, omitted for pre-equilibration.

T1 sequence (Q99ZW2 whole entry): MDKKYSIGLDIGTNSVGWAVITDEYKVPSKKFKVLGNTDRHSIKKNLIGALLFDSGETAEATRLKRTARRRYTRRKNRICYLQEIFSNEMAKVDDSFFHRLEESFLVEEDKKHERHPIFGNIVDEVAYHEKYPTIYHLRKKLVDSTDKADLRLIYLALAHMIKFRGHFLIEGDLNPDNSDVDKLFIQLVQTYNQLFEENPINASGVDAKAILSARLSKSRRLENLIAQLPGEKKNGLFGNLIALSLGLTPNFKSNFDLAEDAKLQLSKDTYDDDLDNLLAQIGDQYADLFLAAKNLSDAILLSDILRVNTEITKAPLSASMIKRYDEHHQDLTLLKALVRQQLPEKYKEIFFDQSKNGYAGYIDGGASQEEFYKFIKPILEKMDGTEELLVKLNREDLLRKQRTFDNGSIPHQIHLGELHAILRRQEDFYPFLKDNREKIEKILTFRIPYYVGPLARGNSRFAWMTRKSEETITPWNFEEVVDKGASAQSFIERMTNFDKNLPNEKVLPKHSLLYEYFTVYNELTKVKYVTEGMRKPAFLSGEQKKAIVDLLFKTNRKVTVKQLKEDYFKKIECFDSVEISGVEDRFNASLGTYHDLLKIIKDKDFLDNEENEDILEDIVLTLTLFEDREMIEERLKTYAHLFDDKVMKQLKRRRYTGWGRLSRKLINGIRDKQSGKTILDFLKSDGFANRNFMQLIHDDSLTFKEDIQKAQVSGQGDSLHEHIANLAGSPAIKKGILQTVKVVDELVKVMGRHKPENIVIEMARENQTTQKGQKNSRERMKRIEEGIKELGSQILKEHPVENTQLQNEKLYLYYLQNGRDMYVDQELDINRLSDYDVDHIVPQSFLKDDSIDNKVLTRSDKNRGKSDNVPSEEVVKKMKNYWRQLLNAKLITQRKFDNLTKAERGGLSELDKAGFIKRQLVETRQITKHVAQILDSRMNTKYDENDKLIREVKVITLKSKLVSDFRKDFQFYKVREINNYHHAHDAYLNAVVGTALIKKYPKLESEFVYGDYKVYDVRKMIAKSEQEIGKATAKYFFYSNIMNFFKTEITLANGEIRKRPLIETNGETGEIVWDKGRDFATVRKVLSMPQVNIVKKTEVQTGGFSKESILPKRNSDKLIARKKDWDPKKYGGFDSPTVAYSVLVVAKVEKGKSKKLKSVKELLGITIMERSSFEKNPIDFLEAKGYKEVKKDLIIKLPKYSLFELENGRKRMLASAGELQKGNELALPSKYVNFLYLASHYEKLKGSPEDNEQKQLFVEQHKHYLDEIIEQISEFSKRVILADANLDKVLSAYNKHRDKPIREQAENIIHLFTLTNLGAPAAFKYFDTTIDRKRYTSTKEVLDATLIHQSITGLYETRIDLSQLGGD

B1: sgRNA + on-target 55-bp DNA (mixed)
RNA: GACGCAUAAAGAUGAGACGCGUUUUAGAGCUAUGCUGUUUUGGAAACAAAACAGCAUAGCAAGUUAAAAUAAGGCUAGUCCGUUAUCAACUUGAAAAAGUGGCACCGAGUCGGUGCUUUUUUUGGAUC
DNA 1: AGCTGACGTTTGTACTCCAGCGTCTCATCTTTATGCGTCAGCAGAGATTTCTGCT
DNA 2: AGCAGAAATCTCTGCTGACGCATAAAGATGAGACGCTGGAGTACAAACGTCAGCT
With B1, the Kd was 3 nM with SpCas9 [1] and 1 nM with SpCas9 [2].

B2: sgRNA + off-target 55-bp DNA (3-bp PAM-distal mismatch) (mixed)
RNA: B1 RNA
DNA 1: B1 DNA 1 with G37C, T38A, C39G
DNA 2: B1 DNA 2 with G17C, A18T, C19G
In the case of B2, the Kd came out at 24 nM with SpCas9 [3] and 8.1 nM with SpCas9 [4].

In general, Kd refers to a measure of binding affinity in units of concentration.
